Data reported in patent US20170183415A1 (Novartis, published 2017).

T1: immobilized CD123 (UniProt P26951 19-305, limits assumed)
T1 construct: also called IL-3Rα; IL3Rα
T1 sequence (looked up): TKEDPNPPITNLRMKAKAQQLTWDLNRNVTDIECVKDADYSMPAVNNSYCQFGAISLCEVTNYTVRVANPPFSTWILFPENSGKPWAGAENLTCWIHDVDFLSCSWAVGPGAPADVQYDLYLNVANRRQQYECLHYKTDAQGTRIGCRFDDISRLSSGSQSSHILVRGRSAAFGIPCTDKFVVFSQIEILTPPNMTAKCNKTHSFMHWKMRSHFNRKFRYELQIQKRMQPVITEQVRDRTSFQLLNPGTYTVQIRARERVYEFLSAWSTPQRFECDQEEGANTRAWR

T2: human CD123-Fc (human, UniProt P26951 19-305, limits assumed)
T2 construct: Staining reagent; not shown: Fc part
T2 sequence (looked up): T1 sequence (looked up)

B1: parent mouse scFv (anti-CD123, clone 32716) (scFv)
scFv: DIVLTQSPASLAVSLGQRATISCRASESVDNYGNTFMHWYQQKPGQPPKLLIYRASNLESGIPARFSGSGSRTDFTLTINPVEADDVATYYCQQSNEDPPTFGAGTKLELKGGGGSGGGGSSGGGSQIQLVQSGPELKKPGETVKISCKASGYIFTNYGMNWVKQAPGKSFKWMGWINTYTGESTYSADFKGRFAFSLETSASTAYLHINDLKNEDTATYFCARSGGYDPMDYWGQGTSVTVSS
notes: also called mouse Ctrl scFv
B2: CAR 8 - Full (humanized CD123 CAR) (other)
chain: QIQLVQSGAEVKKPGASVKVSCKASGYIFTNYGMNWVRQAPGQRLEWMGWINTYTGESTYSADFKGRVTITLDTSASTAYMELSSLRSEDTAVYYCARSGGYDPMDYWGQGTTVTVSSGGGGSGGGGSGGGGSGGGGSEIVLTQSPATLSLSPGERATLSCRASESVDNYGNTFMHWYQQKPGQAPRLLIYRASNLESGIPARFSGSGSRTDFTLTISSLEPEDVAVYYCQQSNEDPPTFGQGTKLEIKTTTPAPRPPTPAPTIASQPLSLRPEACRPAAGGAVHTRGLDFACDIYIWAPLAGTCGVLLLSLVITLYCKRGRKKLLYIFKQPFMRPVQTTQEEDGCSCRFPEEEEGGCELRVKFSRSADAPAYKQGQNQLYNELNLGRREEYDVLDKRRGRDPEMGGKPRRKNPQEGLYNELQKDKMAEAYSEIGMKGERRRGKGHDGLYQGLSTATKDTYDALHMQALPPR
notes: Chimeric antigen receptor on transduced human T cells; also called UL69-05CC
B3: CAR 7 Full (humanized CD123 CAR) (other)
chain: QIQLVQSGAEVKKPGASVKVSCKASGYIFTNYGMNWVRQAPGQRLEWMGWINTYTGESTYSADFKGRVTITLDTSASTAYMELSSLRSEDTAVYYCARSGGYDPMDYWGQGTTVTVSSGGGGSGGGGSGGGGSGGGGSDIVLTQSPDSLAVSLGERATINCRASESVDNYGNTFMHWYQQKPGQPPKLLIYRASNLESGVPDRFSGSGSRTDFTLTISSLQAEDVAVYYCQQSNEDPPTFGQGTKLEIKTTTPAPRPPTPAPTIASQPLSLRPEACRPAAGGAVHTRGLDFACDIYIWAPLAGTCGVLLLSLVITLYCKRGRKKLLYIFKQPFMRPVQTTQEEDGCSCRFPEEEEGGCELRVKFSRSADAPAYKQGQNQLYNELNLGRREEYDVLDKRRGRDPEMGGKPRRKNPQEGLYNELQKDKMAEAYSEIGMKGERRRGKGHDGLYQGLSTATKDTYDALHMQALPPR
notes: Chimeric antigen receptor on transduced human T cells; also called WW88-24LB
B4: CD123 CAR 1172 (mouse anti-human CD123 CAR, scFv 32716 light-to-heavy, CD8 hinge, 4-1BB, CD3zeta) (other)
chain: GSDIVLTQSPASLAVSLGQRATISCRASESVDNYGNTFMHWYQQKPGQPPKLLIYRASNLESGIPARFSGSGSRTDFTLTINPVEADDVATYYCQQSNEDPPTFGAGTKLELKGGGGSGGGGSSGGGSQIQLVQSGPELKKPGETVKISCKASGYIFTNYGMNWVKQAPGKSFKWMGWINTYTGESTYSADFKGRFAFSLETSASTAYLHINDLKNEDTATYFCARSGGYDPMDYWGQGTSVTVSSASSGTTTPAPRPPTPAPTIASQPLSLRPEACRPAAGGAVHTRGLDFACDIYIWAPLAGTCGVLLLSLVITLYCKRGRKKLLYIFKQPFMRPVQTTQEEDGCSCRFPEEEEGGCELRVKFSRSADAPAYKQGQNQLYNELNLGRREEYDVLDKRRGRDPEMGGKPRRKNPQEGLYNELQKDKMAEAYSEIGMKGERRRGKGHDGLYQGLSTATKDTYDALHMQALPPR
notes: Chimeric antigen receptor expressed on human T cells; also called C1172; clone 72
B5: CAR 5 - Full (humanized CD123 CAR) (other)
chain: QIQLVQSGSELKKPGASVKVSCKASGYIFTNYGMNWVRQAPGQGLEWMGWINTYTGESTYSADFKGRFVFSLDTSVSTAYLQINALKAEDTAVYYCARSGGYDPMDYWGQGTTVTVSSGGGGSGGGGSGGGGSGGGGSDIVLTQSPDSLAVSLGERATINCRASESVDNYGNTFMHWYQQKPGQPPKLLIYRASNLESGVPDRFSGSGSRTDFTLTISSLQAEDVAVYYCQQSNEDPPTFGQGTKLEIKTTTPAPRPPTPAPTIASQPLSLRPEACRPAAGGAVHTRGLDFACDIYIWAPLAGTCGVLLLSLVITLYCKRGRKKLLYIFKQPFMRPVQTTQEEDGCSCRFPEEEEGGCELRVKFSRSADAPAYKQGQNQLYNELNLGRREEYDVLDKRRGRDPEMGGKPRRKNPQEGLYNELQKDKMAEAYSEIGMKGERRRGKGHDGLYQGLSTATKDTYDALHMQALPPR
notes: Chimeric antigen receptor on transduced human T cells; also called GW86-29RB
B6: 109375 CAR6 - Full (humanized CD123 CAR) (other)
chain: QIQLVQSGSELKKPGASVKVSCKASGYIFTNYGMNWVRQAPGQGLEWMGWINTYTGESTYSADFKGRFVFSLDTSVSTAYLQINALKAEDTAVYYCARSGGYDPMDYWGQGTTVTVSSGGGGSGGGGSGGGGSGGGGSEIVLTQSPATLSLSPGERATLSCRASESVDNYGNTFMHWYQQKPGQAPRLLIYRASNLESGIPARFSGSGSRTDFTLTISSLEPEDVAVYYCQQSNEDPPTFGQGTKLEIKTTTPAPRPPTPAPTIASQPLSLRPEACRPAAGGAVHTRGLDFACDIYIWAPLAGTCGVLLLSLVITLYCKRGRKKLLYIFKQPFMRPVQTTQEEDGCSCRFPEEEEGGCELRVKFSRSADAPAYKQGQNQLYNELNLGRREEYDVLDKRRGRDPEMGGKPRRKNPQEGLYNELQKDKMAEAYSEIGMKGERRRGKGHDGLYQGLSTATKDTYDALHMQALPPR
notes: Chimeric antigen receptor; also called MW89-29GB

What follows are binders tested against T1, immobilized CD123 (assay: ELISA, soluble scFv on immobilized CD123).

Row | Binder | EC50 [nM]
1 | B1 | 1.1 to 2.6

These binders were tested against T2, human CD123-Fc (assay: flow cytometry of transduced T cells (day 10) stained with human CD123-Fc, then anti-human Fc PE; unit not given).
Description: To detect the transduction efficiency and level of expression of each construct, transduced T cells on day 10 of expansion were stained with (i) Alexa fluor 647 goat anti-mouse F(ab) reagent, (ii) FITC goat anti-human F(ab), or (iii) human CD123-Fc primary followed by anti-human Fc PE.

Row | Binder | Expression by CD123-Fc
2 | B2 | 73.2
3 | B3 | 51
4 | B4 | 32.3
5 | B5 | 46.1
6 | B6 | 0.64
